Assay results: the nanobody polyreactivity screen of Harvey et al. (2022)

Experiment: yeast display, Sf9 membrane polyspecificity reagent, FACS + sequencing; frameworks hold sequencing errors
Summary of the method: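 Using colony PCR, genes from sorted yeast display clones were amplified, then sequenced on MiSeq at 2 × 250 and filtered by CDR length. The clones had been stained with 10% biotinylated, detergent-solubilized Sf9 membrane reagent for 1 hour at 4 °C and sorted by FACS into low and high (top ~1%) gates on anti-HA and streptavidin fluorescence. Polyreactivity labels come from the gate of origin.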

Row | Sequence | polyreactivity (PSR sort gate)
1 | QVQLVESGGGLVQAGGSLRLICDASGLTFIRNAMGCYRQATGKERELVAAITRRGGSTYYADSVKGRFTISRDNAKNTVYLQMHSLQPEDTPVDYCARRLYPSASYDYDYWGQGTQETVSS | high polyreactivity
2 | QVQLVESGGCLVQAGGSLRLSCAASGSIFRYYNMGWYRQAPGKERELVAVINWSGGSTYYADSVKWRFTISRDNAKNTVYLQMNSLKPEDCAVYYCAICFWRTRRYGADPRTKYDYWGLGTQVTVSS | high polyreactivity
3 | QVQLVESGGGLVQAGGSLRLSCAASGFTFTSYAMGWYRQAPGKERELVAAINRSGGSTTYADSEKGRFTISRDNAKNTVYLQMNSLKPEDTAVYYCAKAFRGHYWGQGTQVTVSS | high polyreactivity
4 | QVQLVESGGGLVQAGGSLRLSCAASVFIFGYYAMGWYRQAPGKERELVADISWSGVSTYYADSVKGRFTISRDNAKNTVYLQMNSLKPEDNAVYYCAVGYVLTGVFQARFDYWGQGTQVTVSS | high polyreactivity
5 | QVQLVESGGGLVKAGGSLRLSCAASGSTIGGNAMVWYRQAPGKERELVASITRSGGSTYYADSVKGRFTISRDNAKNNVYLQMNSLKPEDSAVYYCAAGKWYRSPWKYDYWGQVTQVTVSS | low polyreactivity
6 | QVQLVESGGGLDQAGGSLRLSWAASGFTFVPYAMGWYRQAPGKERNLVARITGGGGNTYYADSVKGRFTISRDNAKNTVYLQMISLKPEDTAVYYCAADYTNWKTCSNEMYYWGQGTQVTVSS | low polyreactivity
7 | QVQLVESGGGLVQAGGSLRLSCAASGSTFDTYAMGWYRQAPGKERELVAAISSGGSTNYADSVKGRFTISRDNAKNTVYLQMNSLKPEDTAVYYCADSNKSVFPVYGTLDEYWGQGTQVTVSS | low polyreactivity
8 | QVQLVESGGGLVQAGCSLRLIFAASGSIFIGYAMGWYRQAPGKERELVATITNGGSTYYADSVKGRFTISRDNAKNTVYLQMNSLKPEDSAVYYCNKPTYQWGQGTQVTVSS | high polyreactivity
9 | QVQLVESGGGLVQAGGSLRLSCAASGSIFIVYAMGWYRQAPGKERELVAAISYRGGSTYADSVKGRFTISRDNAKNTVYLQMNSLKPEDTAVYYCAADDLSYVGYYYGYVDDDYWGQGTQVTVSS | high polyreactivity
10 | QVQLVESGGVLVQAGGSLRLSCAASGSTIRLYAMGWYRQAPGKERELVAAIRSGGNTNYADSVKGRFTISRDNAKNSVYLQMKSLKREDTAVYYCNGFCAQLPVPNYDYWGQGPQVTVSS | high polyreactivity
11 | QVQLVESGGGLVQAGVSLRLSCAASGRTFFYNAMGWYRQAPGKERELVAAISSGGGYTYYADSVKGRFTISRDNAKNTVYLQMNSLKPEDTAVYYCAAASYRQPGYGYWGQGTQVTVSS | high polyreactivity
12 | QVQLVESGGGLVQAGGSLRLSCAASGSTFSYNAMGWYRQAPGKERELVAAISNGGSTNYADSVKGRFTISRDNAKNTVSLQMNSLKPEDTAVYYCAAHTYSELSWLVVYPYDYWGQGTQVTVSS | low polyreactivity
13 | QVQLVESGGGLVQAGGSLRFSCAASGSIFGSYAMGWYRQAPGKERELVAAITRGGGTTYYADSVKGRFTISRDNAKNTVYLQMNSLKPEDTAVYYCAAKWYHPYGPVYYWGQGTQVTVSS | high polyreactivity
14 | QLQLVQSGGGLVQAGGILRLSCAPSGSIFTPNTMGWYSQAPGKERELVAAITIRGGSTYYADSVKGSFTISRDNANITVYLQMNSLKPEDTAVYYCATEYGLRYYLVDYWGQGTQVTVSS | low polyreactivity
15 | QVQLVESGGGLVQAGGSLRLSCAASGSTFYRYAMGWYRQAPGKERELVAAISTSGGRTYYADSVKGRFTISRDNAKNTVYLQMNSLKPEDTAVYYCAAPYQYGYWGQGTQVTVSS | high polyreactivity
16 | QVQLVESGGGLVQAGGSLRLSCAASGSTFSNNAMGWYRQAPGNERELVAAISRSGGSTYYADSVKGRFTISRDNAKNTVYLQMNSLKPEDTAVYYCAVSPRYYRNGGAHLQYDYWGQGTHVTVSS | high polyreactivity
17 | QVQLVESGGGLVQAGGSLRLSCAASGRTFTYYAMGWYRQAPGKERELVADINRSGGDTYYADSVKGRFTISRDNAKNTVYLQMNSLKPEDTAVYYCAADDWGAQHRYDYWGQGTQVTVSS | low polyreactivity
18 | QVQLVESGGGLVQAGGSLRLSCAASGYIWYNAMRWYRQAPGKERELVAAISWGGGTTYYADSVKGRFTISRDNAKNTVYLQMNSLKPEDTAVYYCAAVDAVGPTSHAMYYWGQGTQVTVSS | low polyreactivity
19 | QVQLVESGGGLVQAGGSLRLSCAASGLTFRRNAMGWYRQAPGKERELVAAISSGGVRTYYADSVKGRFTISRDNAKNTVYLQMNSLKPEDTAVYYCAAEDYAQRYTHYESWGQGTQVTVSS | low polyreactivity
20 | QVQLVESGGGLVQAGGSLRLSCAASGFTYVYNAMGWYRQAPGTERELVAAISSGGSTYYADSVKGRFTISRDNAKYTVYLQMNSLKPEDTAVYYCARRSSWFKYEYWGQGTQVTVSS | low polyreactivity
21 | QVQLVVSGGGLVQAGGSLRLSGAASGSIFWVYAMGWSRQAPGKELELVAAINWRGGSTYYADSVKGRFTISRDNAKNTVYLQKNSLKPEDTAVYNCAVQPNYYGMGYWGQGTQVTVSS | high polyreactivity
22 | QVQLEESGGCLVQAGGSLRLICAASGSTFDANAMGWYRQAPGKERELVATISDGGSTNYADSVKGRFTISRDNAKNTVYLQMNSLKPEDTSVYYCAALWYYGGKSACPGGGYWGQGTQVTVSS | low polyreactivity

Row | Sequence | polyreactivity (PSR sort gate)
23 | QVQLVESGGGLVQAGGSLRLSCAASGRIFGFYAMGWYRQAPGKERELVARITLSGGRTYYADSVKGRFTISRDNAKNTVYLQMNSLKPEDTEVYYCAADSIGRLWGYGYWGQGTQVTVSS | high polyreactivity
24 | QVQLVESGGGLVQPGGRLRLSCEASGIFTDYAMGCYRQEPGKERELVAAISWRGGSTYFADSVKGRFTISRDNAKKTVYLQMHSLKPEDTAVFYCAAGVRGGGGRYRYGYWGQGTQVTVSS | high polyreactivity
25 | QVQIVESGGGLFQAGGSLRLSCAASGGIFREYAMGWSRQAPGKERELVAVISDSGAGTYYADSVKGRFTISRDNAKNTVSLQMNSLKPEDTEVYYCAQGTARLDFPDMDPWGQGTQVTVSS | low polyreactivity
26 | QVQLVESGGGLVQAGGSLRLSCAASGSIFGPYAMGWYRQAPGKERELVADIRTSGGGTYYADSVKGRFTISRDNAKNTVYLQMNSLKPEDTAVYYCNADPKWEMGSWGQGTQVTVSS | low polyreactivity
27 | QVQLVESGGGLVQAGGSLRLSCDASGRIFHYNSMGWYRQAPGKERELVAAISTGGSTNYADSVKGRFTISRDNAKNTVYLQMNSLKPEDTAVYYCAADHPVTYPTSKFDYWGQGTQVTVSS | low polyreactivity
28 | QVQLVESGGGLVQAGGSLRLSCAASGIIFAYYAMGWYRQAPGKVRELVASITNTGSTYYADSVKGRFTISRDNAKNTVYLQMNSLKPEDTAVYYCNAVLSSNTKWRYPGDYWGQGTQVTVSS | low polyreactivity
29 | QVQLVESGGGLVQAGGSLRLSCAASGSTFVSNAMGWYRQAPGKERELVAGISWSGGSTYYADSVKGRFTISRDNAKNTVYLQMHSLKPEDTAVYYCNAVYRPRQFDYWGQGTQVTVSS | low polyreactivity
30 | QVQLVESGGGLVQAGGSLRLSCAASGRTFPSYVMGWYRQAPGKERELVAAINNGVSTNYADSVKGRYTISRDNAKNTVYLQMNSLNPEDTADYYCAAEVVAQMNYCGQGTQVTVSS | low polyreactivity
31 | QVQLVESGGGLVQAGGSLRLSCAASGFTFYVYAMGWYRQAPGKERELVASISRGGSTYYADSVKGRFTISRDNAKNTVYLQINSLKPEDTAVYYCNRVPYVSSSKVRYSNGFDYWGQGTQVTVSS | low polyreactivity
32 | QVQLVESGGGLVQAGGSLRLSCAASGSTFHYYARGWYSQAPGKDRELVAAIRTSGGSTYYADSVKGRFTISRDNEKNTVYLLMNCLKPEDTAVYYCNRVLGYPYGVDYWGQGTQVTVSS | high polyreactivity
33 | QVHLVESAVGLVQAGGSLRLSCAASASTFPSYAMGWYRQAPGKERELVAAINSGGGTNYADSVKGRFTISRDNAKNTVYLQMNSLKPEDTAVYYCAKSRYDYTKTEGGYWGQGTQVTVSS | low polyreactivity
34 | QVQLVESGGGLVQAGGSLRLSCAASGSIFDGYAMGWYRQAPGKEREFVAAITKRTGRTYYADSVKGRFTISRDNAKNTVYLQMNSLKPEDTAVYYCAAAIPRFSAGHYDYCGQGTQVTVSS | high polyreactivity
35 | QVQLVESGGGLFQAGGSLRLSCAASGLIIAYYAMRWYRQAPGKERELVAAISSVGSTYYADSVNGRFTISRDNAKNTVYLQMNSLKPEDTAVYYCAAAPRGGMYYWGQGTQVTVSS | high polyreactivity
36 | QVQLVESGGGLVQAGGSLRLSCAASGFILGANAMGWYRQAPGKERELVAAIRSSDGTTYYADSVKGRFTISRDNAKNTVYLQMNSLKPEDTAVYYCAADWRLLYEYWGQGTQVTVSS | high polyreactivity
37 | QVQLVESGGGLVQAGGSLRLSCAASGRTFIGNALGWYRQAPGKERELVASITRSGGSTYYADSVKGRFTISRDNAKNTVYLQMNSLKPEDTAVYYCAARVYTYYYDLHKRYYWGQGTQVTVSS | high polyreactivity
38 | QVQLVESGGGLVQAGGSLRLSCAASGRILTRNALGWYRQAPGKERELVAAISTSGGRTYYADSVKGRFTISRDNAKNTVYLEMNSLKPEDTAVYYCAAYSASYGGYDYWGQGTQVTVSS | high polyreactivity
39 | QGQLVESGGGLVQAGGSLRLSCAASGYIIRAYAMGWYRQAHGKERELVAAISSRGGSTYYADSVKGRFTISRDNAKNTVYLQMNSLKPEDTAVYYCAAAYRQPYIGYGYWGQGTQVTVSS | high polyreactivity
40 | QVQLVESGGGLVQAGGSLRLSCAASGRIFFIYAMGWYRQAPGKERELVAAISYDSGSTYYADSVKGRFTISRDNAKNTVYLQMNSLKPEDTAVYYCAAEWGLVIYSTYGYDYWGQGTQVTVSS | low polyreactivity
41 | QVQLVESGGGLVQAGGSLRLSCAASGSIFDYNAMGWYRQAPGKERELVAGITFIGGSTYYADSVKGRFTISRDNAKNTVYLQMNSLKPEDTAVYYCNADVAPGIFYGYESWGQGTQVSVSS | low polyreactivity
42 | QVHHVDSGGGIVKAGGSLRLSCPASGFIFPRNVLGWSRQEPGKERELVAAISRSGGSTYYADSVKGRFTISRDNAKNTVYLPMNSLKPEDTAVYYGGKRTFYNGEFWGQGTQVTVSS | low polyreactivity
43 | QVQLVESGGGLVQAGGSLRLSCASSGRIFQFYAMGWYRQEPGKERELVASISWSGGRTYYADSVKGRFTISRDNAKNTVYLQMNSLNPEDTAVYYCAADYYDYYYWGQGTQVTVSS | high polyreactivity
